This note sets out measurements from patent publication US20150132821, “Systems and Methods for Improving Nuclease Specificity and Activity” (Georgia Tech Research Corporation, published 2015).

One data set deals with T1, S-02 (S2) NK-TALEN (synthetic, UniProt Q56830 SEQ:41-735).
T1 chain: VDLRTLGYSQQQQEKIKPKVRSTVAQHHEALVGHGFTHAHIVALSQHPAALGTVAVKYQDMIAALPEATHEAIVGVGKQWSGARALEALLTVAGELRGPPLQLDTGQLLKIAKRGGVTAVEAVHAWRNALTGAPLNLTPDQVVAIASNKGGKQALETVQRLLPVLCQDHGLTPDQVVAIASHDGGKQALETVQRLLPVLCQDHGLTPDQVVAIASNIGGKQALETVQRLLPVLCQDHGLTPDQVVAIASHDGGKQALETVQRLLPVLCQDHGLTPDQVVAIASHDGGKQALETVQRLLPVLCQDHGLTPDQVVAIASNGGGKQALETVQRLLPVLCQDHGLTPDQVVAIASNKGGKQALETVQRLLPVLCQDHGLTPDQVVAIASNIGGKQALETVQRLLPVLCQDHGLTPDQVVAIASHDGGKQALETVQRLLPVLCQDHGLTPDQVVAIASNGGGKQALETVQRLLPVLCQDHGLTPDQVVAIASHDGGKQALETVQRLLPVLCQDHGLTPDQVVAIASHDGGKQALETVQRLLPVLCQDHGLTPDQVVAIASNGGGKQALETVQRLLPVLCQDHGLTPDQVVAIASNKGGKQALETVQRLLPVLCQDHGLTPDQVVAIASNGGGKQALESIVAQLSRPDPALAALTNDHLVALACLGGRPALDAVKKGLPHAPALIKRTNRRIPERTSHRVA
The experiment in a line: cell_activity; monomer SSA assay. To be noted: tags: 3xFLAG, NLS, FokI. The protocol: (§1) HEK293T cells (ATCC) were cultured in Dulbecco's Modified Eagle Medium (Sigma) supplemented with 10% FBS and 2 mM L-Glutamine. Cells were seeded 80,000 per well of a 24-well plate. After 4 h, cells were transfected with 200 ng of the TALEN plasmid (or 100 ng of each TALEN for hetero-dimeric pairs) and 10 ng of the corresponding SSA reporter plasmid using calcium phosphate transfection. Three control transfections were included: 1) 200 ng of an empty TALEN backbone and 10 ng of an SSA reporter plasmid, 2) 200 ng of an empty TALEN backbone and 10 ng of a pEGFP plasmid, and 3) 100 ng of each GFP-ZFN and 10 ng of an SSA reporter plasmid. Cells were harvested 48 h after transfection. The percentages of pEGFP-transfected samples expressing GFP were determined using an Accuri C6 flow cytometer, as an indication of transfection efficiency. Genomic DNA was isolated using QuickExtract DNA extraction solution (Epicentre) as described20. Sample were PCR amplified for 35 cycles (95° C., 30 s; 60° C., 30 s; 72° C., 60 s) in a 50 μl reaction that contains 2 μl of the extracted DNA, 2.5 μl of each 10 μM target region amplification primer (SSA-Cell-F4, 5′-[…] (SEQ ID NO: 183); SSA-Cell-R4, 5′-[…] (SEQ ID NO: 184)), and 25 μl of GoTaq green master mix (Promega). PCR reactions were then separated on 2% agarose gels and the percentages of SSA-repaired products were quantified using ImageJ.

Another data set has as its target T2, S-07 (S7) NK-TALEN (synthetic, UniProt B2SU53 SEQ:41-1041).
T2 chain: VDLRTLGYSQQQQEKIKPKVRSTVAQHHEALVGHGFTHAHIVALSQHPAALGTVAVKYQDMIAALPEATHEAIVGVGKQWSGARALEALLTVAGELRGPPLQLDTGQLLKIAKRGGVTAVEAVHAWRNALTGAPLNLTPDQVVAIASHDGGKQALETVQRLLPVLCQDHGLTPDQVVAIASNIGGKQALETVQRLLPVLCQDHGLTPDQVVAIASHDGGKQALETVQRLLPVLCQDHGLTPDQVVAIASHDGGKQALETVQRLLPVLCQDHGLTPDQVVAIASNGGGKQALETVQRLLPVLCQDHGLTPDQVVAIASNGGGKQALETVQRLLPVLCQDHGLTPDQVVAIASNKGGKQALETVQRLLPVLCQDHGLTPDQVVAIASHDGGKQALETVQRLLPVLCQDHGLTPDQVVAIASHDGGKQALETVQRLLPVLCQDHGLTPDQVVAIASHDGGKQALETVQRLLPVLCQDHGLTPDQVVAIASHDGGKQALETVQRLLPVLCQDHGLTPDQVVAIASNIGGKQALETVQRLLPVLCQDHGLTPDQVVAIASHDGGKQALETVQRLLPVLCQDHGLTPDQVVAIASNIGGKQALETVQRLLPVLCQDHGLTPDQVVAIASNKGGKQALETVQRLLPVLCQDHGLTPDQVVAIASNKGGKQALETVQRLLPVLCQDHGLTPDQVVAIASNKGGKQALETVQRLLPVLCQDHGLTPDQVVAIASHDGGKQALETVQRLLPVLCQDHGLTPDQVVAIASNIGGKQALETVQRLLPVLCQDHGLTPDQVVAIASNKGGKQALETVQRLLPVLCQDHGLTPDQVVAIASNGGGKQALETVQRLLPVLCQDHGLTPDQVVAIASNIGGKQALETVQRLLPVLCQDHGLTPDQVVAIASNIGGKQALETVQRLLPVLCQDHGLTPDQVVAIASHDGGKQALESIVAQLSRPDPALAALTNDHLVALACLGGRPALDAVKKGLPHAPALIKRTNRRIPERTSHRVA
The experiment in a line: cell_activity; monomer SSA assay. To be noted: tags: 3xFLAG, NLS, FokI. As to the method:
as §1

B1: S-02 half-site (dsDNA)
DNA 1: GCACCTGACTCCTGT
DNA 2: ACAGGAGTCAGGTGC
In the case of B1, the activity with S-02 (S2) NK-TALEN was found to be 23 % SSA.

B2: S-07 half-site (dsDNA)
DNA 1: CACCTTGCCCCACAGGGCAGTAAC
DNA 2: GTTACTGCCCTGTGGGGCAAGGTG
Take B2: the activity in the data set with S-07 (S7) NK-TALEN was 7.5 % SSA.
